Here are results for two molecules from patent US20250361311A1 (published 2025).

Assay [1] deals with 70392_074[TL1A]H1L1. As to the kind of experiment: SPR; monovalent Fab. A general note: Surface plasmon resonance follows binding to a sensor surface in real time, without labels.
Assay [2] has as its target 70416_073[TL1A]H1L1. As to the kind of experiment: SPR; monovalent Fab.
Assay [3] concerns the target 70417_111[TL1A]H1L1. Kind of assay: SPR; monovalent Fab.
Assay [4] deals with 70392_201[TL1A]H1L1. Kind of assay: SPR; monovalent Fab.
For assay [5], the target named is 70416_092[TL1A]H1L1. Kind of assay: SPR; monovalent Fab.
Assay [6] has as its target 70392_189[TL1A]H1L1. As to the kind of experiment: SPR; monovalent Fab.
Assay [7] addresses 70392_069[TL1A]H1L1. As to the kind of experiment: SPR; monovalent Fab.
Assay [8] addresses Comparator 2. Kind of assay: SPR; monovalent Fab.
Assay [9] concerns the target T1, human scTL1A (human, UniProt O95150 72-251, biotinylated (captured with the Biotin CAPture kit); site not stated).
T1 chain: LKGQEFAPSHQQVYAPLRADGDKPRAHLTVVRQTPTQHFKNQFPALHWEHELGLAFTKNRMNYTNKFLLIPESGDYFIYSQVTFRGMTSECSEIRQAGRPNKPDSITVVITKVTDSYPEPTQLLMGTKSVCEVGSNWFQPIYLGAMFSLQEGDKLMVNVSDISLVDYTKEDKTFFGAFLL
As to the kind of experiment: SPR; monovalent Fab.

Assay [10] addresses T2, recombinant TL1A (UniProt O95150 72-251).
T2 chain: T1 chain
Kind of assay: SPR; run in different experiment under similar conditions.

B1: scTL1A (ligand)
chain: T1 chain
modifications: biotinylated (captured with the Biotin CAPture kit); site not stated
As a reminder, the Kd is the concentration at which binding is half-saturated. In the case of B1, the Kd in [1] is 6.11 nM; in assay [2], 6.61 nM; in assay [3], 6.84 nM; in assay [4], 0.128 nM; in assay [5], 3.12 nM; in assay [6], 0.895 nM. The Kd in assay [7] amounted to 1.69 nM; in [8], 0.0708 nM.

B2: 70416_041[TL1A]H1L1 Fab (Fab, V domains shown)
VH: QVQLVQSGAEVKKPGASVKVSCKVSGFSVTSYNVHWVRQAPGQGLEWMGVMWSGGNTDYNSKFQGRVTMTRDTSTNTVYMELSSLRSEDTAVYYCARAGRYYHDSNYYWDFPYWGQGTLVTVSS
VL: DIQMTQSPSSVSASVGDRVTITCRASEDIYSGLAWYQQKPGKSPKLLIYGASSLQDGVPSRFSGSGSGTDYTLTISSLQPEDFATYFCQEGLKSPYTFGAGTKLEIK
B2: the Kd in [9] and in assay [10] was 0.104 nM throughout.
